Measured values taken from patent US20170158765A1 (Merck Sharp & Dohme, published 2017).

Biological target: T1, human ILT5 on the surface of peripheral blood cells (PBMC subsets, APCs) (human, UniProt O75022 24-631)
T1 construct: whole, on cells; also called surface ILT5; Immunoglobulin-like transcript 5
Assay: flow cytometry, staining of human PBMCs
Description: Peripheral blood mononuclear cells (PBMCs) from healthy human blood donors were stained with a murine monoclonal antibody (TRX585) comprising a heavy chain variable region comprising the amino acid sequence of SEQ ID NO: 2 or SEQ ID NO: 3, and a light chain variable region comprising the amino acid sequence of SEQ ID NO: 1. Sequencing analysis of the heavy chain variable region was inconclusive as to whether the first amino acid residue was D or E. As the two amino acids are very similar and the first residue is not in a CDR, it is highly likely that VH with D or E at the first position would have very similar if not the same ILT5-binding properties. PBMCs were also stained with antibodies specific for defined hematopoietic cell lineages and analyzed for ILT5 expression by flow cytometry.

T1 sequence (O75022 24-631): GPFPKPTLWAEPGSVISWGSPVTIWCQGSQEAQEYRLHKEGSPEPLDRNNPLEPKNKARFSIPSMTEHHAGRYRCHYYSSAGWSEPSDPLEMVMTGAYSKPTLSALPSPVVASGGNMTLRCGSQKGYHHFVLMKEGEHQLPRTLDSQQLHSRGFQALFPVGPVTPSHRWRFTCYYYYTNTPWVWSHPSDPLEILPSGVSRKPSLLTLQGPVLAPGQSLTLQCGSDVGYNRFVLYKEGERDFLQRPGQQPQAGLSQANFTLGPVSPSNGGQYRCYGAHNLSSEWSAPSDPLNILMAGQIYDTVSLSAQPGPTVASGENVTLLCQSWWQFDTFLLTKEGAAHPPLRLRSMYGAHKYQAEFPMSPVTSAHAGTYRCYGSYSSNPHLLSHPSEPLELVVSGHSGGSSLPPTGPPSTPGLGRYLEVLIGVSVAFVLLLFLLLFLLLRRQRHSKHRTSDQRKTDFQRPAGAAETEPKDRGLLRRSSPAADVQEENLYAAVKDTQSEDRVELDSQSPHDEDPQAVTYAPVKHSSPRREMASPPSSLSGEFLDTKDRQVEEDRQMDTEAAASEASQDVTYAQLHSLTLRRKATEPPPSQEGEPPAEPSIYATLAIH

binding result: binds
B1: TRX585 mouse anti-human ILT5 monoclonal antibody (8G6 mAb, IgG1, kappa) (antibody, V domains shown)
VH: DVQLQESGPGLVKPSQSLFLTCSVTGYSISSSYYWNWIRQFPGNKLEWMGYISFDGSNNYNPSLKNRISITRDTSKNQFFLKLNSVTTEDTATYYCAREKENYYGSSFYYFDYWGLGTSLTVSS
VL: DIQMTQSPASLSVSVGETVTITCRASENIYSNLAWYQQKQGKSPQVLVYAATNLADGVPSRFSGSGSGTQFSLKINSLQSEDFGNYFCQHFWRIPWTFGGGTKLEIK
notes: Murine IgG1, kappa purified from hybridoma supernatant; also called TRX585 antibody; TRX585 mAb
